{"source": "paper doi:10.1101/2024.06.20.599911", "about": "(bioRxiv, 2024)", "target": "T1, GFP-AtCNIH5 (genomic AtCNIH5pro: GFP-AtCNIH5 in cnih5) (Arabidopsis thaliana, UniProt Q9SZ74 1-135)", "T1 sequence (looked up)": "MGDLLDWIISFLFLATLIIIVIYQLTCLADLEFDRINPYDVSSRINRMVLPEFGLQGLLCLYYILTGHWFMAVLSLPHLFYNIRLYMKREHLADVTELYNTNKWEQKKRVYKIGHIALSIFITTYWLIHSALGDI", "experiment": "co-IP", "data": [{"binder": "endogenous AtPHF1 (natural protein, UniProt Q8GYE0 1-398, looked up) MEIEEASRESGHVVCGSWIRRPKKVNWVLIAKASKRRGSSVSSPALLNIFSFDPITASLSSSPLATHTLKDSDGDPVAVSVHPGGDYFVCSTSKGGCKLFELVGGATGITILAKELLPLQNAGLQKCMAFSFDGSKLAVGGVDGCLRIMEWPNLSVILDEPKAHKSIRDMDFSLDSEFLATTSTDGSARIWKAEDGFPLSTLERSGDENIELCRFSKDGTKPFLFCAAQRGDTPMVNVYDISTWKKLGFKKLSRKTASTMAVSLDGKYIALGGKDGDVSVAEVKTMEIYHYSKRLHLGQSIASLEFCPSERVMLTTSSEWGEMVTKLTVPKEWKEWQIYALLFCLFMASVIAAYVFFENSDSFWKLPMGKDQKRPKISLFGGSSSTPSEDHSRWNLDL", "values": [{"measurement": "fold co-immunoprecipitated against the free GFP control", "value": "~40", "unit": "times"}]}]}
